Results published in US20110053865A1 (published 2011).

Assays:
Experiment in all cases: Biacore; eBiosc hIL23
124D2 = molecular target: 124D2
121C7 = molecular target: 121C7
12D2 = molecular target: 12D2
124H2 = molecular target: 124H2
81D1 = molecular target: 81D1
124G2 = molecular target: 124G2
12A11 = molecular target: 12A11
123F1 = molecular target: 123F1
124H5 = molecular target: 124H5
119C9 = molecular target: 119C9
119C3 = molecular target: 119C3
119B3 = molecular target: 119B3
119H1 = molecular target: 119H1
3H5 = molecular target: 3H5
3C7 = molecular target: 3C7
3G9 = molecular target: 3G9
4F3 = molecular target: 4F3
3A11 = molecular target: 3A11
1G8 = molecular target: 1G8
3D4 = molecular target: 3D4
3A10 = molecular target: 3A10
3E1 = molecular target: 3E1
3A7 = molecular target: 3A7

- koff (124D2): 0.000103 s⁻¹
- koff (121C7): 0.000112 s⁻¹
- koff (12D2): 0.000125 s⁻¹
- koff (124H2): 5.88e-05 s⁻¹
- koff (81D1): 0.0114 s⁻¹
- koff (124G2): 9.28e-05 s⁻¹
- koff (12A11): 0.000134 s⁻¹
- koff (123F1): 0.000377 s⁻¹
- koff (124H5): 3.54e-05 s⁻¹
- koff (119C9): 0.0012 s⁻¹
- koff (119C3): 0.0334 s⁻¹
- koff (119B3): 0.00015 s⁻¹
- koff (119H1): 0.0106 s⁻¹
- koff (3H5): 0.00333 s⁻¹
- koff (3C7): 0.0102 s⁻¹
- koff (3G9): 0.00672 s⁻¹
- koff (4F3): 0.00208 s⁻¹
- koff (3A11): 0.00513 s⁻¹
- koff (1G8): 0.00223 s⁻¹
- koff (3D4): 0.0062 s⁻¹
- koff (3A10): 0.00286 s⁻¹
- koff (3E1): 0.00866 s⁻¹
- koff (3A7): 0.00507 s⁻¹
B1: eBiosc hIL23 (ligand)
chain 1: RAVPGGSSPAWTQCQQLSQKLCTLAWSAHPLVGHMDLREEGDEETTNDVPHIQCGDGCDPQGLRDNSQFCLQRIHQGLIFYEKLLGSDIFTGEPSLLPDSPVGQLHASLLGLSQLLQPEGHHWETQQIPSLSPSQPWQRLLLRFKILRSLQAFVAVAARVFAHGAATLSP
chain 2: IWELKKDVYVVELDWYPDAPGEMVVLTCDTPEEDGITWTLDQSSEVLGSGKTLTIQVKEFGDAGQYTCHKGGEVLSHSLLLLHKKEDGIWSTDILKDQKEPKNKTFLRCEAKNYSGRFTCWWLTTISTDLTFSVKSSRGSSDPQGVTCGAATLSAERVRGDNKEYEYSVECQEDSACPAAEESLPIEVMVDAVHKLKYENYTSSFFIRDIIKPDPPKNLQLKPLKNSRQVEVSWEYPDTWSTPHSYFSLTFCVQVQGKSKREKKDRVFTDKTSATVICRKNASISVRAQDRYYSSSWSEWASVPCS
